These results are taken from patent US20260275312, “CRISPR NUCLEASE POLYPEPTIDES AND GENE EDITING SYSTEMS COMPRISING SUCH” (ARBOR BIOTECHNOLOGIES, INC., published 2026).

The target of series [1] is T1, Nuclease S W509R/T72R/I845R (synthetic construct, W509R,T72R,I845R).
T1 chain: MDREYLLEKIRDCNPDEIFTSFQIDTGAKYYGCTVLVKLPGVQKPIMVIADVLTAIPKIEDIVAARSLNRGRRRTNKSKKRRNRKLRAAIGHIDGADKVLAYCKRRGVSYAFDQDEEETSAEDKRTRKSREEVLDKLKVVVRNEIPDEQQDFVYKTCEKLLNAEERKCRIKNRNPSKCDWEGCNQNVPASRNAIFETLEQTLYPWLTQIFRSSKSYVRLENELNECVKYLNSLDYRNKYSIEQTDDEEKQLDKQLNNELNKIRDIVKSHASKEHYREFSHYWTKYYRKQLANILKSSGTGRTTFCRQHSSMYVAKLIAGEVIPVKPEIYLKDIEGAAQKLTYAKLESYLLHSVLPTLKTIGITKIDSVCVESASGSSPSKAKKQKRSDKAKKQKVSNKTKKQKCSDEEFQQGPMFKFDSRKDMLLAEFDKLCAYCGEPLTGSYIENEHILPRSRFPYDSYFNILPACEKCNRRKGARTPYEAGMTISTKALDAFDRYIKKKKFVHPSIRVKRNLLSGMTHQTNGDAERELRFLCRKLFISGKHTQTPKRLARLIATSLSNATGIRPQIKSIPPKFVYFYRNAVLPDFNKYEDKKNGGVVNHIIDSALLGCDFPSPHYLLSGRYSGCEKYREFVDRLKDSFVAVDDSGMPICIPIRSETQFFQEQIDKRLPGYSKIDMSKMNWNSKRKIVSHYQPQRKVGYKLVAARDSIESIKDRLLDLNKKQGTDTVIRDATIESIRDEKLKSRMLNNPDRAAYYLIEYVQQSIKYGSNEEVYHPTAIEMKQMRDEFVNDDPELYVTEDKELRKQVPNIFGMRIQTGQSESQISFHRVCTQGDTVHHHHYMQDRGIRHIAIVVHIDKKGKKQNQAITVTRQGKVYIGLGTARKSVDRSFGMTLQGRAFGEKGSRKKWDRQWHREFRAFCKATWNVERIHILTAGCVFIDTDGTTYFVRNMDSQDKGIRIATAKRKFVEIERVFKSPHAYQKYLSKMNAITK
Nature of the series: cell_activity; HEK293T; PAM AACC. The note with it: tags: N-term SV40 NLS, XTEN linker + C-term nucleoplasmin NLS. The procedure: HEK293T cells were transfected with plasmids expressing the Nuclease S polypeptides and the gRNAs provided herein following the methods provided in Example 1 above. Gene editing efficiencies were determined by NGS following the methods also provided in Example 1. The NGS results were analyzed also following the methods provided in Example 1 above.
Each Nuclease S variant was cloned as described in Example 6. HEK293T cells were further transfected with a plasmid encoding a Nuclease S variant and a plasmid encoding an RNA guide of Table 11, followed by NGS analysis, as described in Example 5. For each target, indel ratios, referring to the percentage of NGS reads comprising indels, were calculated for the reference Nuclease S (SEQ ID NO: 49) and for each Nuclease S variant. The indel ratios shown in Table 13 were calculated as the average of two bioreplicates, each of which contained two technical replicates.

Another series concerns the target T2, Nuclease H L54R (synthetic construct, L54R).
T2 chain: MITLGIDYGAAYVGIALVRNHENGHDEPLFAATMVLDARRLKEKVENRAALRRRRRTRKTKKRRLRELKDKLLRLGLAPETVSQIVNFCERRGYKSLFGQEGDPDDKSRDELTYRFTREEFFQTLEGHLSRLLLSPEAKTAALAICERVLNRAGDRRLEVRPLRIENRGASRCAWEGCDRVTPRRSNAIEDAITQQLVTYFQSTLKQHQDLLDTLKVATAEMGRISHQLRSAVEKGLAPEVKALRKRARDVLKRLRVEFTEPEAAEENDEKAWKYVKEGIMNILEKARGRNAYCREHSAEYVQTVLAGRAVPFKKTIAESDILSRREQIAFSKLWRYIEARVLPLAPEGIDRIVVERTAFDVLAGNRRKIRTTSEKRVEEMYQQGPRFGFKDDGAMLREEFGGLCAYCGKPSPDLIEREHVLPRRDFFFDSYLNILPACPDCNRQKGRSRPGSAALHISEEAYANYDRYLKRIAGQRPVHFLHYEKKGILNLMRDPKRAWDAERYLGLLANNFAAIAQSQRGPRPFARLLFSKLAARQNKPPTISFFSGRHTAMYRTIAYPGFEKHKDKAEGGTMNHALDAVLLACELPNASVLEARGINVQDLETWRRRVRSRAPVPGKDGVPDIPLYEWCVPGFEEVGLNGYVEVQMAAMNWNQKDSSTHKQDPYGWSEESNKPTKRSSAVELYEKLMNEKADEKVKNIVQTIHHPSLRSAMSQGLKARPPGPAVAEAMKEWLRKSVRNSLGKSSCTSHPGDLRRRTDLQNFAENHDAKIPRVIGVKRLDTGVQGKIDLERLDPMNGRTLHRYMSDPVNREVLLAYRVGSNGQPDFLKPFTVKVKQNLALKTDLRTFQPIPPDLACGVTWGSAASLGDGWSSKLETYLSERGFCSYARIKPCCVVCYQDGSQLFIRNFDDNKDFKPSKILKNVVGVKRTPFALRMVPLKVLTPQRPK
Kind of series: cell_activity; HEK293T; PAM AAC. The note with it: tags: N-term SV40 NLS, XTEN linker + C-term nucleoplasmin NLS. The procedure:
HEK293T cells were transfected with plasmids expressing the Nuclease H polypeptides and the gRNAs provided herein following the methods provided in Example 1 above. Gene editing efficiencies were determined by NGS following the methods also provided in Example 1. The NGS results were analyzed also following the methods provided in Example 1 above.
Indel ratios, referring to the percentage of NGS reads comprising indels, were calculated for the reference and for each variant. The indel ratios used for fold change calculations were the average of two technical replicates. To then calculate fold change in indel ratios, the indel ratio for each variant was divided by the indel ratio for the reference. […] Numbering is relative to the reference nuclease of SEQ ID NO: 64 (i.e., without an NLS).

B1: S AAVS1-T7 RNA guide ; AAVS1-T7 target (S) (ssRNA ; dsDNA)
RNA: GGCUAUAAUCCAUGCUGACCGUUGUAUUCGGAUGGGAGUAAAAGGUUGAGUACACCUGGAAACAAAACGACAUAAAGGUGUUCUCCCAUCUGUGUACAAAGAGCAGAUAUAUGAGUUGAUAAGUAAUAUGUUGCACGUAUGGACUUUGACAGUCUGUACCUCUGCGUGAAAGACAUAUUGCGUUAUUCAUAUAUCUGUGAGUCUGUUCUAAAUUUAAAGGUUUAGGGAA
DNA 1: GGCTATAATCCATGCTGACC
DNA 2: GGTCAGCATGGATTATAGCC
Take B1: in series [1], the activity was found to be 0.305 indel ratio.

B2: H AAVS1-T5 RNA guide ; AAVS1-T5 target (H) (ssRNA ; dsDNA)
RNA: GGCUAUAAUCCAUGCUGACCGUUUCAAUCAACCUGAUCUCUCUGCUUGCGCUGCAGGCUUCAUAAGAUCAGUAGGUUGAAAAGAGCAUCCGUCCGACAUGCACUCCGGGAUGGGGCAGUCCCGGCUCUUGCGGUUCCCGAUGCAGUUAUGUGUCCGCGGAACACGGUGUCGGACACGUCGCAAGACAGGAUGUGAGCCCAUUAUCCACAUUAGGAUCAAUGUACGCAUGAGCAGUCCGCAAUGCCGGGGACGCU
DNA 1: GGCTATAATCCATGCTGACC
DNA 2: GGTCAGCATGGATTATAGCC
For B2, the “fold change in indel ratio vs reference” value in the series with Nuclease H L54R is 16.6 fold indel vs reference.
